Measurements published in the Immune Epitope Database (IEDB).
Each block holds one sequence with its values, some of them ahead of it.

Experiments:
HLA-B*40:01 = test: IEDB peptide-MHC binding, purified MHC/competitive/radioactivity; filed as Kd, often an IC50 or EC50 that approximates it; ≥ and ≤ were set here for values at or beyond the usual limits of such assays
HLA-B*44:03 = test: as above
HLA-B*51:01 = test: as above
HLA-A*01:01 [1] = test: as above
HLA-A*02:02 = test: as above; details: source organism: SARS coronavirus Tor2
HLA-A*02:06 = test: as above; details: source organism: SARS coronavirus Tor2
HLA-A*23:01 = test: as above
HLA-A*30:02 = test: as above
HLA-A*24:02 = test: as above
HLA-A*02:03 = test: as above
HLA-A*29:02 = test: as above
HLA-A*26:01 [2] = test: as above
HLA-B*07:02 = test: as above
HLA-A*26:01 [3] = test: IEDB peptide-MHC binding, purified MHC/direct/fluorescence; filed as Kd, often an IC50 or EC50 that approximates it; ≥ and ≤ were set here for values at or beyond the usual limits of such assays
HLA-A*01:01 [4] = test: as above; details: source organism: Mycobacterium avium 104
HLA-A*68:01 = test: IEDB peptide-MHC binding, purified MHC/competitive/radioactivity; filed as Kd, often an IC50 or EC50 that approximates it; ≥ and ≤ were set here for values at or beyond the usual limits of such assays; details: source organism: Triticum aestivum
HLA-A*03:01 = test: as above; details: source organism: Triticum aestivum
HLA-A*33:01 = test: as above; details: source organism: Triticum aestivum
HLA-A*11:01 = test: as above; details: source organism: Triticum aestivum
HLA-A*31:01 = test: as above; details: source organism: Triticum aestivum
[5] = source organism: Dengue virus 1 Singapore/S275/1990
[6] = source organism: Dengue virus 1 Brazil/97-11/1997
[7] = source organism: SARS coronavirus Tor2
[8] = source organism: Dengue virus 2 Jamaica/1409/1983
[9] = source organism: Dengue virus 3 Martinique/1243/1999
[10] = source organism: Dengue virus 4 Philippines/H241/1956
[11] = source organism: Triticum aestivum

Sequence: GEVDSFSLGL
Kd (HLA-B*40:01; [5]): 2.13 nM
Kd (HLA-B*44:03; [5]): 158 nM

Sequence: WPLNEGIMAI
Kd (HLA-B*51:01; [6]): 186 nM

Sequence: YQCGHYTHI
Kd (HLA-A*01:01 [1]; [7]): ≥ 20100 nM
Kd (HLA-A*02:02): 72.1 nM
Kd (HLA-A*02:06): 9.23 nM
Kd (HLA-A*23:01; [7]): 312 nM
Kd (HLA-A*30:02; [7]): 10900 nM
Kd (HLA-A*24:02; [7]): 116 nM
Kd (HLA-A*02:03; [7]): 14.9 nM
Kd (HLA-A*29:02; [7]): ≥ 25000 nM
Kd (HLA-A*26:01 [2]; [7]): 13300 nM

Sequence: IPKNFAGPV
Kd (HLA-B*07:02; [8]): 6.79 nM
Kd (HLA-B*51:01; [8]): 3100 nM

Sequence: RPRWLDARVY
Kd (HLA-B*07:02; source organism: Dengue virus 4 Dominica/814669/1981): 13.7 nM

Sequence: EIARIVEQM
Kd (HLA-A*26:01 [3]; source organism: Mycobacterium tuberculosis variant bovis): 194 nM

Sequence: KPGTSGSPIV
Kd (HLA-B*07:02; [6]): 1080 nM

Sequence: VEDYGFGVF
Kd (HLA-B*40:01; [8]): 315 nM

Sequence: LTVTLVWLY
Kd (HLA-A*01:01 [4]): ≥ 20000 nM
Kd (HLA-A*26:01 [3]; source organism: Mycobacterium avium 104): 2.7 nM

Kd (HLA-B*44:03; source organism: Homo sapiens): 356 nM
Sequence: KELEGILLP

Sequence: VEKVETWAL
Kd (HLA-B*40:01; [9]): 14.9 nM

Sequence: ISMMGFKMNY
Kd (HLA-A*01:01 [1]; [7]): 422 nM
Kd (HLA-A*23:01; [7]): ≥ 31000 nM
Kd (HLA-A*30:02; [7]): 4.25 nM
Kd (HLA-A*24:02; [7]): ≥ 70300 nM
Kd (HLA-A*29:02; [7]): 33.4 nM
Kd (HLA-A*26:01 [2]; [7]): 5450 nM

Sequence: LALLAAFKV
Kd (HLA-B*51:01; [8]): 812 nM

Sequence: FEEVMRGKFG
Kd (HLA-B*40:01; [9]): 1340 nM

Sequence: TPSMAMRCVG
Kd (HLA-B*07:02; [6]): 405 nM

Sequence: SSQGSEYDY
Kd (HLA-A*01:01 [1]; [7]): 576 nM
Kd (HLA-A*23:01; [7]): ≥ 77800 nM
Kd (HLA-A*30:02; [7]): 68.9 nM
Kd (HLA-A*24:02; [7]): ≥ 77600 nM
Kd (HLA-A*29:02; [7]): 294 nM
Kd (HLA-A*26:01 [2]; [7]): ≥ 102000 nM

Sequence: LEKHGAERL
Kd (HLA-B*40:01; [6]): 23.7 nM

Sequence: GYLKPTTFM
Kd (HLA-A*01:01 [1]; [7]): ≥ 78100 nM
Kd (HLA-A*23:01; [7]): 2540 nM
Kd (HLA-A*30:02; [7]): 6690 nM
Kd (HLA-A*24:02; [7]): 12200 nM
Kd (HLA-A*29:02; [7]): 538 nM
Kd (HLA-A*26:01 [2]; [7]): ≥ 77900 nM

Sequence: DPRRCMKPV
Kd (HLA-B*07:02; [8]): 139 nM

Sequence: FLFFMQGKGI
Kd (HLA-B*51:01; [10]): ≥ 45200 nM
Kd (HLA-A*02:03; [10]): 3.77 nM

Sequence: RPTFAAGLL
Kd (HLA-B*07:02; [8]): 1.09 nM

Sequence: AWPLIVTAL
Kd (HLA-A*01:01 [1]; [7]): ≥ 23000 nM
Kd (HLA-A*23:01; [7]): ≥ 49000 nM
Kd (HLA-A*30:02; [7]): ≥ 37900 nM
Kd (HLA-A*24:02; [7]): ≥ 77600 nM
Kd (HLA-A*29:02; [7]): ≥ 75000 nM
Kd (HLA-A*26:01 [2]; [7]): 17700 nM

Kd (HLA-A*01:01 [1]; [11]): 83.5 nM
Kd (HLA-A*68:01): 921 nM
Kd (HLA-A*03:01): 152 nM
Kd (HLA-A*23:01; [11]): 11500 nM
Kd (HLA-A*30:02; [11]): 874 nM
Kd (HLA-A*33:01): 2600 nM
Kd (HLA-A*24:02; [11]): ≥ 28300 nM
Kd (HLA-A*11:01): 136 nM
Kd (HLA-A*31:01): 224 nM
Kd (HLA-A*29:02; [11]): 13 nM
Kd (HLA-A*26:01 [2]; [11]): 854 nM
Sequence: AMCNVYIPPY

Sequence: EEVQVLALE
Kd (HLA-B*44:03; [8]): 10500 nM
